{
  "source": "the RNAGym collection of RNA variant scans (doi:10.1073/pnas.2313332121)",
  "parents": {"B1": {"name": "TPR 5TU (parent)", "chain": "GGAUCUUCUCGAUCUAACAAAAAAGACAAAUCUGCCACAAAGCUUGAGAGCAUCUUCGGAUGCAGAGGCGGCAGCCUUCGGUGGCGCGAUAGCGCCAACGUUCUCAACUAUGACACGCAAAACGCGUGCUCCGUUGAAUGGAGUUUAUCAUG"}},
  "note": "Fewer inactive variants are shown than the library holds.",
  "data": [
    {"variants_of": "B1", "assay": "polymerase ribozyme fitness, log enrichment relative to wild type (log ratio); higher = more active; in vitro selection for triplet polymerase activity", "summary_of_the_method": "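A heterodimeric triplet polymerase ribozyme had each of its subunits mutagenized by PCR into a library, which was transcribed. One round of in vitro selection, done in triplicate, annealed each library with a biotinylated primer, its partner subunit and triplets, then incubated it frozen at −7 °C before gel excision of extended constructs, streptavidin-bead capture and RT-PCR. Fitness is the logarithm of genotype enrichment relative to wild-type enrichment, based on Illumina sequencing of inputs and outputs and inverse-variance-weighted replicate averages. A base-2 logarithm is used, and genotypes were kept only with ≥10 input reads and ≥1 read per output.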", "values": [
      {"variant": "A12G C99G", "polymerase ribozyme fitness (log ratio)": -0.551},
      {"variant": "U13C A21C A23C G92U A142G A147U", "polymerase ribozyme fitness (log ratio)": "≤ -4.2"},
      {"variant": "A12U C93A", "polymerase ribozyme fitness (log ratio)": -1.26},
      {"variant": "A12U C93U", "polymerase ribozyme fitness (log ratio)": -1.13},
      {"variant": "U13C C35G C36G U55G G86U", "polymerase ribozyme fitness (log ratio)": -4.16},
      {"variant": "U13A A28U C36U G81C", "polymerase ribozyme fitness (log ratio)": "≤ -4.2"},
      {"variant": "A12U C87A C103G U135G", "polymerase ribozyme fitness (log ratio)": "≤ -4.2"},
      {"variant": "A12U G94A", "polymerase ribozyme fitness (log ratio)": -1.47},
      {"variant": "A12G C14G A22G U61A G71A C99U C123U A142G", "polymerase ribozyme fitness (log ratio)": "≤ -4.2"},
      {"variant": "U13C A49C A52U G71A A113U", "polymerase ribozyme fitness (log ratio)": "≤ -4.2"},
      {"variant": "A12G G141C", "polymerase ribozyme fitness (log ratio)": -0.0174},
      {"variant": "A12U U56A C93U A147G", "polymerase ribozyme fitness (log ratio)": -1.6},
      {"variant": "U13C A40C G48C G50C G83U", "polymerase ribozyme fitness (log ratio)": "≤ -4.2"},
      {"variant": "U13A G48U U56A G84A", "polymerase ribozyme fitness (log ratio)": -1.28},
      {"variant": "U13A A39U C54G C79U G81U G94U U139C G140U", "polymerase ribozyme fitness (log ratio)": "≤ -4.2"},
      {"variant": "U13A U33A A52U A89G", "polymerase ribozyme fitness (log ratio)": "≤ -4.2"},
      {"variant": "A12U G42C U61A A106U C132U", "polymerase ribozyme fitness (log ratio)": "≤ -4.2"},
      {"variant": "U13A C93A", "polymerase ribozyme fitness (log ratio)": -3.28},
      {"variant": "U13C C32A A49C", "polymerase ribozyme fitness (log ratio)": "≤ -4.2"},
      {"variant": "A12U A49C G100U U146G", "polymerase ribozyme fitness (log ratio)": "≤ -4.2"},
      {"variant": "A12U C38G G59U", "polymerase ribozyme fitness (log ratio)": -0.492},
      {"variant": "U13A A40U U55A C129A", "polymerase ribozyme fitness (log ratio)": "≤ -4.2"},
      {"variant": "U13C A21C", "polymerase ribozyme fitness (log ratio)": 0.934},
      {"variant": "A12U C96U U144G", "polymerase ribozyme fitness (log ratio)": 0.0703},
      {"variant": "A12U U53A U56A A66C A113C", "polymerase ribozyme fitness (log ratio)": "≤ -4.2"},
      {"variant": "U13A C18U U55A A119G", "polymerase ribozyme fitness (log ratio)": -1.83},
      {"variant": "A12G U55G", "polymerase ribozyme fitness (log ratio)": -2},
      {"variant": "A12G U55A", "polymerase ribozyme fitness (log ratio)": 0.668},
      {"variant": "U13C C27A A49C U56A A97U", "polymerase ribozyme fitness (log ratio)": "≤ -4.2"},
      {"variant": "U13A A30G A37C G68U", "polymerase ribozyme fitness (log ratio)": "≤ -4.2"},
      {"variant": "U13A C18G", "polymerase ribozyme fitness (log ratio)": -0.831},
      {"variant": "U13A A73G G84A", "polymerase ribozyme fitness (log ratio)": -0.387},
      {"variant": "A12G C54A G86C C87U G126A", "polymerase ribozyme fitness (log ratio)": "≤ -4.2"},
      {"variant": "A12G U45A A52U C93A C118A A120U U145G", "polymerase ribozyme fitness (log ratio)": "≤ -4.2"},
      {"variant": "U13A G34U G94A U102G", "polymerase ribozyme fitness (log ratio)": "≤ -4.2"},
      {"variant": "A12U G50U C72U G126A", "polymerase ribozyme fitness (log ratio)": -1.33},
      {"variant": "A12U A28U U102A U139G U148G", "polymerase ribozyme fitness (log ratio)": -4.1},
      {"variant": "A12U C35U A91G", "polymerase ribozyme fitness (log ratio)": -3.67},
      {"variant": "A12U C35A U44A G92C U127A C129G G143A U151C", "polymerase ribozyme fitness (log ratio)": "≤ -4.2"},
      {"variant": "U13C A120G U130A", "polymerase ribozyme fitness (log ratio)": -3.95},
      {"variant": "A12U A91U", "polymerase ribozyme fitness (log ratio)": "≤ -4.2"},
      {"variant": "A12U A91G", "polymerase ribozyme fitness (log ratio)": -2.26},
      {"variant": "U13A C14A A60G C93U", "polymerase ribozyme fitness (log ratio)": -2.5},
      {"variant": "A12U C54A C95U", "polymerase ribozyme fitness (log ratio)": -1.84},
      {"variant": "A12G G92C G133U", "polymerase ribozyme fitness (log ratio)": -3.59},
      {"variant": "A12G C14G A52C G67A G124A A137C", "polymerase ribozyme fitness (log ratio)": "≤ -4.2"},
      {"variant": "A12U A20U A21C C87G A142G", "polymerase ribozyme fitness (log ratio)": "≤ -4.2"},
      {"variant": "A12G G58A A91U U109G", "polymerase ribozyme fitness (log ratio)": -3.78},
      {"variant": "U13C A16G C18A C35A C87U", "polymerase ribozyme fitness (log ratio)": "≤ -4.2"},
      {"variant": "A12G G92A U127A U139A G143A", "polymerase ribozyme fitness (log ratio)": "≤ -4.2"},
      {"variant": "A12U A41U G65C G70C C79U", "polymerase ribozyme fitness (log ratio)": "≤ -4.2"},
      {"variant": "U13A G50A U55A A89C", "polymerase ribozyme fitness (log ratio)": -3.57},
      {"variant": "A12U A16U C51A G94A U109C A113G C116A U144A", "polymerase ribozyme fitness (log ratio)": "≤ -4.2"},
      {"variant": "U13C C38U G86A G124C", "polymerase ribozyme fitness (log ratio)": -1.98},
      {"variant": "A12G A41G C85G A106G", "polymerase ribozyme fitness (log ratio)": -1.5},
      {"variant": "A12G C38U C99U", "polymerase ribozyme fitness (log ratio)": -0.24},
      {"variant": "A12G C38A C96G", "polymerase ribozyme fitness (log ratio)": -0.0836},
      {"variant": "A12G U31G C118A A120G G141C", "polymerase ribozyme fitness (log ratio)": -2.6},
      {"variant": "A12G C57G G83U A115G", "polymerase ribozyme fitness (log ratio)": -2.09},
      {"variant": "U13A C14G A19U U53A U55A G86C U135A", "polymerase ribozyme fitness (log ratio)": "≤ -4.2"},
      {"variant": "A12U C85A C96A", "polymerase ribozyme fitness (log ratio)": -2.97},
      {"variant": "A12U A23G C87U", "polymerase ribozyme fitness (log ratio)": -3.67},
      {"variant": "A12U C54U G59C A60G U144G", "polymerase ribozyme fitness (log ratio)": -0.245},
      {"variant": "A12U A16C C57G G81A U104G A115G", "polymerase ribozyme fitness (log ratio)": "≤ -4.2"},
      {"variant": "A12G U45A A52U U55A C79G G81A A98G", "polymerase ribozyme fitness (log ratio)": "≤ -4.2"},
      {"variant": "A12U C35G A60C U61A C76A G124U", "polymerase ribozyme fitness (log ratio)": "≤ -4.2"},
      {"variant": "U13C C51A G83C A89G C125U", "polymerase ribozyme fitness (log ratio)": "≤ -4.2"},
      {"variant": "A12U C38G G50A A66C", "polymerase ribozyme fitness (log ratio)": "≤ -4.2"},
      {"variant": "A12G C35U U56C C57G G58U A60G", "polymerase ribozyme fitness (log ratio)": -0.194},
      {"variant": "A12U A20U C54U A73G A91U C99U U146G", "polymerase ribozyme fitness (log ratio)": "≤ -4.2"},
      {"variant": "U13C A16U", "polymerase ribozyme fitness (log ratio)": -0.079},
      {"variant": "U13A C76A U148G", "polymerase ribozyme fitness (log ratio)": "≤ -4.2"},
      {"variant": "A12G U61A C76A A106G", "polymerase ribozyme fitness (log ratio)": -3.97},
      {"variant": "A12U U13A A52C C87A G94U U134A A138U", "polymerase ribozyme fitness (log ratio)": "≤ -4.2"},
      {"variant": "U13A A21C A73G C85G A89U", "polymerase ribozyme fitness (log ratio)": -2.11},
      {"variant": "A12U G141C", "polymerase ribozyme fitness (log ratio)": -0.54},
      {"variant": "A12U A17U A22C G34C U55A U56A C57U A64C C95U", "polymerase ribozyme fitness (log ratio)": "≤ -4.2"},
      {"variant": "U13A C57U A73C C96G", "polymerase ribozyme fitness (log ratio)": "≤ -4.2"},
      {"variant": "U13A C38U A60C G83C", "polymerase ribozyme fitness (log ratio)": "≤ -4.2"},
      {"variant": "A12U A16G A30U C79G C95A U144A", "polymerase ribozyme fitness (log ratio)": "≤ -4.2"},
      {"variant": "A12U G59U C69A C96U", "polymerase ribozyme fitness (log ratio)": -2.45},
      {"variant": "A12U C87A U90C A113G C131U", "polymerase ribozyme fitness (log ratio)": "≤ -4.2"},
      {"variant": "A12U C27U A73U C96G A97U A107G", "polymerase ribozyme fitness (log ratio)": "≤ -4.2"},
      {"variant": "A12G U13C C96A", "polymerase ribozyme fitness (log ratio)": -0.909}
    ]}
  ]
}
